Data taken from patent US20090123474A1, “COMBINATION OF ANGIOPOIETIN-2 ANTAGONIST AND OF VEGF-A, KDR AND/OR FLTL ANTAGONIST FOR TREATING CANCER” (ASTRAZENECA AB, priority 2005, published 2009).
Changes are numbered by the printed parent chain.

B1: Tie-2/Fc: soluble recombinant human Tie-2/Fc fusion protein (R&D Systems), positive control (protein)
chain: AMDLILINSLPLVSDAETSLTCIASGWRPHEPITIGRDFEALMNQHQDPLEVTQDVTREWAKKVVWKREKASKINGAYFCEGRVRGEAIRIRTMKMRQQASFLPATLTMTVDKGDNVNISFKKVLIKEEDAVIYKNGSFIHSVPRHEVPDILEVHLPHAQPQDAGVYSARYIGGNLFTSAFTRLIVRRCEAQKWGPECNHLCTACMNNGVCHEDTGECICPPGFMGRTCEKACELHTFGRTCKERCSGQEGCKSYVFCLPDPYGCSCATGWKGLQCNEACHPGFYGPDCKLRCSCNNGEMCDRFQGCLCSPGWQGLQCEREGIQRMTPKIVDLPDHIEVNSGKFNPICKASGWPLPTNEEMTLVKPDGTVLHPKDFNHTDHFSVAIFTIHRILPPDSGVWVCSVNTVAGMVEKPFNISVKVLPKPLNAPNVIDTGHNFAVINISSEPYFGDGPIKSKKLLYKPVNHYEAWQHIQVTNEIVTLNYLEPRTEYELCVQLVRRGEGGEGHPGPVRRFTTASIGLPPPRGLNLLPKSQTTLNLTWQPIFPSSEDDFYVEVERRSVQKSDQQNIKVPGNLTSVLLNNLHPREQYVVRARVNTKAQGEWSEDLTAWTLSDILPPQPENIKISNITHSSAVISWTILDGYSISSITIRYKVQGKNEDQHVDVKIKNATITQYQLKGLEPETAYQVDIFAENNIGSSNPAFSHELVTLPESQAPADLGGGK
modifications: left off: a dimerising Fc or GST
notes: soluble recombinant human Tie-2/Fc fusion protein (R&D Systems), positive control
B2: mAb 5.86.1: fully human anti-Angiopoietin-2 monoclonal antibody, variable regions SEQ ID NO: 25-28 (antibody, listed as Homo Sapiens, listed as Homo sapiens, V domains shown)
VH: QVQLVQSGAEVKKPGASVKVSCKASGYTFTGYHMYWVRQAPGQGLEWLGWINPNSGGTNYAQKFQGRVTMTRDTSISTAYMELSRLRSDDTAVYYCVRDQGIAAAGPFDYWCQGTLVTVSSA
VL: DIRMTQSPSSLSASVGDRVTITCRASQRISTYLNWYQQKPGKAPKFLIYAASSLQSGVPSRFSGSGSGTDFTLTISSLQPEDFATYYCQQSYTTPFTFGPGTKVDIKR
B3: mAb 3.3.2: fully human anti-Angiopoietin-2 monoclonal antibody, variable regions SEQ ID NO: 1-4 (antibody, listed as Homo Sapiens, V domains shown)
VH: EVQLVESGGGLVQPGGSLRLSCAVSGFTFSSYWMSWVRQAPGKGLEWVANIKQDGSEKYYVDSVKGRFTISRDNAKNSLYLQMNSLRAEDTAVYYCARDQGIAVAGPFDYWGQGTLVTVSSA
VL: EIVMTQSPATLSVSPGERATLSCRASQTVSSDLAWYQQKPGQAPRLLIYGASIRATGIPARFSGSGSGTEFTLTISSLQSEDFAVYSCQQYYNWWTFGQGTKVEIKR
B4: mAb 5.88.3: fully human anti-Angiopoietin-2 monoclonal antibody, variable regions SEQ ID NO: 29-32 (antibody, listed as Homo Sapiens, V domains shown)
VH: EVQMVESGGGLVQPGGSLRLSCAASGFTLRSYWMSWVRQAPGKGLEWVANIKEDGSEKYHVDSVKGRFTISRDNAENSLFLQMSSLRAEDTAVYYCARDMEASAGLFDYWGQGTLVTVSSA
VL: B3 VL with T20I, T28S, V29I, D32N, I53T, S87Y, Y92N, N93Y
B5: mAb 5.16.3: fully human anti-Angiopoietin-2 monoclonal antibody, variable regions SEQ ID NO: 13-16 (antibody, listed as Homo sapiens, listed as Homo Sapiens, V domains shown)
VH: QVQLVQSGAEVKKPGASVKVSCKASGYTFTGFYMYWVRQAPGQGLEWMGWINPNSSGTNHAQKFQGRVTMTRDTSISTAYMELSRLRSDDTAVYYCARDQDIATAGPFDYWGQGTLVTVSS
VL: B3 VL with T28S, D32N, Y49F, I53T, S87Y, Y92N, Q99R
B6: mAb 3.31.2: fully human anti-Angiopoietin-2 monoclonal antibody, variable regions SEQ ID NO: 9-12 (antibody, listed as Homo sapiens, V domains shown)
VH: EVQLVESGGGLVQPGGSLRLSCAASGFTFSSYWMSWVRQAPGKGLEWVANIKQDGSDKYYVDSVKGRFTISRDNAKNSLYLRMNSLRAEDTAVFYCARDMGSGWFDYWGQGTLVTVSSA
VL: B3 VL with I2V, T28S, S30G, D32N, I53T, S87C, Y92N, N93H
B7: mAb 5.28.1: fully human anti-Angiopoietin-2 monoclonal antibody, variable regions SEQ ID NO: 17-20 (antibody, listed as Homo sapiens, listed as Homo Sapiens, V domains shown)
VH: EVQLVESGGIVVQPGGSLRLSCAASGFTFDDYTMHWVRQTPGKGLEWVSLISWDGGSTYYADSVKGRFTISRDNSKNSLYLQMNSLRTEDTALYYCAKDIDIAVAGTGFDHWGQGTLVTVSSA
VL: EIVMTQSPATLSVSPGERATLSCRASQSVTSNLAWYQQKPGQAPRLLIYGALIRATGIPARFSGSGSGTEFTLTISSLQSEDFAVYYCQQYNNWPFTFGPGTKVDIKR

Each molecule was assayed against T1, Angiopoietin-2 binding to Tie-2 (Homo sapiens, UniProt O15123) (assay: Competitive binding assay (modified ELISA): inhibition of Angiopoietin-2 binding to Tie-2). Settings: positive control at 10-fold molar excess to Angiopoietin-2.
T1 construct: purchased R&D Systems, Inc. BT623 (Angiopoietin-2, biotinylated); 313-TI-100 (Tie-2/Fc)
T1 sequence (O15123 19-496): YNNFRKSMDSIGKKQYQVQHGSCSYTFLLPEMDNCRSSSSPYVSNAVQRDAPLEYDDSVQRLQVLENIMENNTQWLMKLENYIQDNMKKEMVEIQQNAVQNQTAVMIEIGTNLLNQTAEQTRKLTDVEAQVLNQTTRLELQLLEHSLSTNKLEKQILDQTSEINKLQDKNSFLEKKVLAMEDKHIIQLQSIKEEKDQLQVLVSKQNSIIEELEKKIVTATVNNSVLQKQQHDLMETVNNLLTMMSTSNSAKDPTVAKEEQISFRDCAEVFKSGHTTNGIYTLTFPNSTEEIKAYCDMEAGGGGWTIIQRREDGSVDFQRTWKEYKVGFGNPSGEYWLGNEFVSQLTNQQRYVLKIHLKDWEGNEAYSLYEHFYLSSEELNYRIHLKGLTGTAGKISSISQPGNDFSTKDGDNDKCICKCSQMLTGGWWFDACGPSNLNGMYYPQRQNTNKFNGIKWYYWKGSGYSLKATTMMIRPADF
Description: As discussed above, Angiopoietin-2 exerts its biological effect by binding to the Tie-2 receptor. Monoclonal antibodies that inhibited Angiopoietin-2/Tie-2 binding were identified by a competitive binding assay using a modified ELISA. The mAb used were products of micro-purification from 50 ml of exhaustive supernatants of the hybridoma pools that were specific for Angiopoietin-2 (see above). 96-well Nunc Immplates™ were coated with 100 μl of recombinant human Tie-2/Fc fusion protein (R&D Systems, Inc., Cat. No. 313-TI-100) at 4 μg/ml by incubating overnight at 4° C. The plates were washed four times using Phosphate Buffer Saline (PBS) with a Skan™ Washer 300 station (SKATRON). The wells were blocked by 100 μl of ABX-blocking buffer (0.5% BSA, 0.1% Tween, 0.01% Thimerosal in PBS) for 1 hour.
Biotinylated recombinant human Angiopoietin-2 (R&D Systems, Inc. Cat. No. […] The plates were incubated at room temperature for two hours before the unbound molecules were washed off. Bound biotinylated Angiopoietin-2 was then detected using 100 μl/well of Streptavidin-HRP conjugate at 1:200 by incubating at room temperature for half an hour. After washing twice, the bound Streptavidin was detected by HRP substrate (R&D Systems, Cat. No. DY998). The plates were incubated for 30 minutes before 450 stop solution (100 μl/well, BioFX, Cat# BSTP-0100-01) was added to terminate the reaction. The light absorbance at 450 nm was determined by a Spectramax Plus reader.
Soluble recombinant Tie-2/Fc fusion protein at 10-fold molar excess to Angiopoietin-2 was used as a positive control. At this concentration, Tie-2/Fc inhibited binding of Angiopoietin-2 to immobilized Tie-2 by 80%.
To quantitate the inhibitory activities of the mAb on Angiopoietin-2 binding to Tie-2, the titer was determined for purified mAbs from the top candidates using a competitive binding assay. Each concentration of the mAb was tested in duplicate. The concentration-response relationship was found by curve fitting using Graphpad Prism™ graphic software (non-linear, Sigmoid curve). The maximal inhibition (efficacy) and IC50 (potency) were calculated by the software.

With B1 the “inhibition of binding of Angiopoietin-2 to immobilized Tie-2” value was 80%.

Same assay, conditions: potency, competitive binding of Angiopoietin-2 to Tie-2, purified mAb

B2 and B3 are within 1.5-fold of each other in “EC50” value: 0.1331 µg/mL for the first, 0.1684 µg/mL for the second.

Compared with B4, B5 is 1.8-fold lower in “EC50” value: 0.1557 µg/mL for the first, 0.08532 µg/mL for the second.

First: B6
Second: B7
The “EC50” value of the first is 65-fold lower: 0.04169 µg/mL for the first, 2.698 µg/mL for the second.

Same assay, conditions: ratio of bound Angiopoietin-2 with mAb (30 μg/ml) versus without mAb

Going from B2 to B3, the “Efficacy*” value rises from 0.3844 to 0.3881.

Compared with B4, B5 is lower in “Efficacy*” value: 0.4032 for the first, 0.3279 for the second.

First: B6
Second: B7
The “Efficacy*” value of the first is lower: 0.3751 for the first, 0.3892 for the second.
